In PMC3315798 (Molecular Biology of the Cell, 2012):

B1: GST-Cdc42p (Q61L, D122A) (natural protein)
chain: not shown
B2: GST-Cdc42p (V36M, Q61L) (natural protein)
chain: not shown
B3: GST-Cdc42p-Q61L (GTP-locked mutant) (natural protein)
chain: not shown

Biological target: T1, Fus2p-FLAG (full-length Fus2p, internally FLAG-epitope tagged at residue 104) (S. cerevisiae, UniProt Q05670 1-677)
T1 sequence (looked up): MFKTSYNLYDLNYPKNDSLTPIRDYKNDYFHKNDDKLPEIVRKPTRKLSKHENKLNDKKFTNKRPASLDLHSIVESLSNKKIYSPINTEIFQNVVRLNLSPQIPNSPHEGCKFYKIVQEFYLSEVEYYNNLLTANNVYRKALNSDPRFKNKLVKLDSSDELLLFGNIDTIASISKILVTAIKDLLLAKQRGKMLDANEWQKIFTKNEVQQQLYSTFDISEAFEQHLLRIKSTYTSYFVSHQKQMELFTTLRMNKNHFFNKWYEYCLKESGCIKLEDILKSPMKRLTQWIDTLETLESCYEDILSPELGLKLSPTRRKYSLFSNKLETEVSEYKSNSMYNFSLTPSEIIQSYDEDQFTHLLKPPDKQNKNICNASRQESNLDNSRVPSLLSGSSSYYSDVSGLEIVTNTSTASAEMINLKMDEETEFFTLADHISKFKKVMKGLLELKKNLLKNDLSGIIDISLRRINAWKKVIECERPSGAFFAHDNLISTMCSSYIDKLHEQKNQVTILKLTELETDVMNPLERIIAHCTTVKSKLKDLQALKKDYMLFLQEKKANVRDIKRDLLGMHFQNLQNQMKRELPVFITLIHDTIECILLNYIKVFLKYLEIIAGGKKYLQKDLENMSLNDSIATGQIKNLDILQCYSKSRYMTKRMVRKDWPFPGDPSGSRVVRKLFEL
Assay: co-IP

Binder | % binding relative to wild-type Cdc42p (so in the source) [%] | fold level bound compared with Cdc42p-T17N or wild type [fold]
B1 | 4 | 
B2 | 7 | 
B3 |  | ~20
